B1: Full length complement regulator C1 inhibitor (C1-INHFL), serum-derived (natural protein, UniProt P05155 23-500, looked up)
chain: NPNATSSSSQDPESLQDRGEGKVATTVISKMLFVEPILEVSSLPTTNSTTNSATKITANTTDEPTTQPTTEPTTQPTIQPTQPTTQLPTDSPTQPTTGSFCPGPVTLCSDLESHSTEAVLGDALVDFSLKLYHAFSAMKKVETNMAFSPFSIASLLTQVLLGAGENTKTNLESILSYPKDFTCVHQALKGFTTKGVTSVSQIFHSPDLAIRDTFVNASRTLYSSSPRVLSNNSDANLELINTWVAKNTNNKISRLLDSLPSDTRLVLLNAIYLSAKWKTTFDPKKTRMEPFHFKNSVIKVPMMNSKKYPVAHFIDQTLKAKVGQLQLSHNLSLVILVPQNLKHRLEDMEQALSPSVFKAIMEKLEMSKFQPTLLTLPRIKVTTSQDMLSIMEKLEFFDFSYDLNLCGLTEDPDLQVSAMQHQTVLELTETGVEAAAASAISVARTLLVFEVQQPFLFVLWDQQHKFPVFMGRVYDPRA
modifications: glycosylated (58 kDa protein/28 kDa sugar by SEC-MALS)
notes: Purified from serum (Complement Technology/Complement Technologies, Tyler, TX); source: bought: Complement Technology (serum-derived)
B2: Recombinant his-tag passenger domain of virulence associated gene 8 (Vag8) of Bordetella pertussis (domain or fragment)
chain: VTAAQRIDGGAAFLGDVAIATTKASEHGINVTGRTAEVRVTGGTIRTSGNQAQGLRVGTENAPDNTALGASVFLQNLIIETSGTGALGVSVHEPQGGGGTRLSMSGTTVRTRGDDSFALQLSGPASATLNDVALETAGQQAPAVVLWQGAQLNAQGLVVQVNGAGVSAIHAQDAGSFTLSGSDITARGLEVAGIYVQEGMQGTLTGTRVTTQGDTAPALQVEDAGTHVSMNGGALSTSGANSPAAWLLAGGSAQFRDTVLRTVGEASHGVDVAAHSEVELAHAQVRADGQGAHGLVVTRSSAMVRAGSLVESTGDGAAALLESGHLTVDGSVVHGHGAAGLEVDGESNVSLLNGARLSSDQPTAIRLIDPRSVLNLDIKDRAQLLGDIAPEAQQPDGSPEQARVRVALADGGTWAGRTDGAVHTVRLLDRGVWTVTGDSRVAEVKLEGGTLAFAPPAQPKGAFKTLVATQGISGTGTIVMNAHLPSGTADVLVAPQGFGDRQVLVVNNTDDGTESGATKVPLIEDEQGHTAFTLGNMGGRVDAGARQYELTASEAQADKARTWQLTPTNEL

Experiments:
[1] = target: B2; test: SEC-MALS; S200 increase 10/300 column, 50 mM Tris pH 7.5, 150 mM NaCl, 0.4 mL/min; individual proteins and the complex; settings: both partners purified
[2] = target: B1; test: SPR; Biacore T200; Vag8 passenger domain immobilised by amine coupling on a CM5 chip; C1-INH 2.5-160 nM injected at 30 µL/min; 25°C, 10 mM HEPES pH 7.4, 150 mM NaCl, 3 mM EDTA, 0.005% P20; dissociation 300 s; settings: both partners purified

B1
stoichiometry N [1]: 1

B2
Kd [2]: ≤ 1 nM

From article PMC5994690, “Virulence Associated Gene 8 of Bordetella pertussis Enhances Contact System Activity by Inhibiting the Regulatory Function of Complement Regulator C1 Inhibitor” (Frontiers in Immunology, 2018)
